These results are taken from publication PMC10790764.

The target of the experiment is fusion protein F of hMPV A2-GFP (CAN97-83) on infected cells (human metapneumovirus A2 (CAN97-83)).

B1: sdHMPV12 (VHH)
VHH: QVQLQESGGGLVQPGGSLRLSCAASGVSLAWYAIGWFRQAPGKDREGISCISASDDSTYYRDSVKGRVTISRDNGRNTVLLQMNSLKPEDTAVYYCATLRANYCSGPPTLGPYLGQGTQVTVSS
As for B1, the other was 9 nM.
